Experiment [1] addresses BRAG2^(Sec7-PH 390–763) (human).
Experiment [2] addresses BRAG2^(Sec7-PH 390–811) (human).
The target of experiment [3] is BRAG2^Sec7 (human).

With “Δ13Arf6 (from UniProt P62330 14-175) (domain or fragment)”, the kcat/Km of GDP/GTP exchange in solution (tryptophan fluorescence kinetics, 37°C, 1 µM Arf) in experiment [1] turned out to be 50000 M⁻¹ s⁻¹; in experiment [2], 50000 M⁻¹ s⁻¹; in experiment [3], 10000 M⁻¹ s⁻¹.
Take “Δ17Arf1 (from UniProt P84077 18-181) (domain or fragment)”: the figures for the kcat/Km of GDP/GTP exchange in solution (tryptophan fluorescence kinetics, 37°C, 1 µM Arf) in experiment [1], in experiment [2] and in experiment [3] were 240000 M⁻¹ s⁻¹, 250000 M⁻¹ s⁻¹ and 20000 M⁻¹ s⁻¹, respectively.

Values taken from article PMC3769224.
